According to patent US11911450B2, “Method for managing pain” (UNIVERSITY OF MIAMI, priority 2017, dated 2024):
“Also recorded” adds a separate entry of the source.

Legend:
[1] = system: ITPR1 phosphorylation (pITPR1) at Ser-1755; test: forskolin-induced ITPR1 phosphorylation (pITPR1) in transfected HEK293 cells; type: cell-based, human; settings: 1 μM forskolin; for forskolin-induced ITPR1 phosphorylation (pITPR1), western blot: overexpression vs empty vector; for pITPR1 by IHC in response to forskolin: vs empty vector (AAV-null)
Protocol: Cell culture and transfections: Human neuronal-derived (e.g., NBL), human non-neuronal derived (e.g., HEK293) cells, or dispersed rodent primary DRG cells can be used. HEK293 cells (cat #CRL-1573 ATCC Manassas, VA) were cultured in Dulbecco's modified Eagle's medium (DMEM-Glutamax cat #0566; Invitrogen) supplemented with 10% fetal bovine serum, FBS (cat #16140 ThermoFisher scientific, Waltham, MA) and 1% penicillin/streptomycin (cat #15140 ThermoFisher scientific, Waltham, MA). Cells were seeded in six-well plates at density of 1.0×10^5 cells per well. The following day, cells were transfected with plasmids via lipofectamine LTX reagent and plus (cat #15338 ThermoFisher scientific, Waltham, MA). For each transfection 2 μg of AAV2-ITR (control), AAV2-V5-Car10, or AAV2-V5-CA10 vectors was used. In various embodiments of the disclosure described herein, 2 μg of expression vectors (including positive and negative controls) in instances when AAV2 is not the viral vector employed.
Immunohistochemistry (IHC): HEK293 cells were seeded in poly-L-Lysine/laminin coated glass coverslips at a density of per coverslip, 24 hrs later cells were transfected with Car10, CA10 or empty vector respectively. Cells were cultured at 37° C. for an additional 96 hrs, then treated with forskolin 1 μM (F6886 Sigma, St. Louis, MO) for 5 min, then fixed with 4% paraformaldehyde for 15 min, permeabilized with 0.1% Triton X-100 for 10 min, and blocked with 1% bovine serum albumin (BSA, sigma) for 1 h. Cells were then incubated with anti-pITPR1 (cat #8548s cell signaling technology), anti-Car10 (cat #SAB1102286 Sigma, St Louis, MO), anti-V5 (cat #R960 Invitrogen), anti-ITPR1 (cat #8568 Cell Signaling technology) antibody overnight at 4° C. The next day, cells were incubated with the corresponding second antibody (1:200) for 1 h at room temperature in the dark. Coverslips were dried and affixed to slides using a fluorescent mounting medium containing Dapi (cat #P36931 Life Technologies). It will be understood that IHC methods also are contemplated using anti-Car8, anti-CA8, anti-CA8 fragment (CA8-204), anti-CA10, anti-Car11 and anti-CA11 antibodies.
HEK293 cells were transfected using AAV8-V5 vectors overexpressing Car10 and CA10, an empty vector and vehicle served as controls. A V5 sequence was inserted at the Car10 or CA10 C-terminal region in order to differentiate between exogenous and endogenous CA10/Car10 expression. […] Using the V5 tag, protein overexpression was detected following V5-Car10 and V5-CA10 vector transfection (FIG. 1B).
In order to examine the role of CA10 in the regulation of ITPR1 phosphorylation (pITPR1) that enhances the response of ITPR1 to the IP3 ligand, HEK293 cells were transfected with AAV8-V5-CA10 vectors. […]

[2] = system: neuropathic (Chung) mouse pain model; test: neuropathic (Chung, spinal nerve ligation) mouse pain model, mechanical withdrawal threshold (von Frey); type: in vivo, C57BL/6J mice; settings: sciatic nerve injection; spinal nerve ligation on Day 19
Protocol: Sciatic nerve injection of expression vectors (adeno-associated AAV8-V5-Car10 and AAV8-V5-CA10 vectors): Mice were anesthetized by intraperitoneal injection of Ketamine, xylazine and acepromazine cocktail (VEDCO, Saint Joseph, MO). Following sciatic nerve exposure, about 1.5 μl viral particles of AAV8-null (1.36E^13 viral particles, SL100832 SignaGen Laboratories Rockville, MD), AAV8-V5-Car10 and AAV8-V5-CA10 (1.06E^14 viral particles and 1.66E^14 viral particles, respectively) were injected into the sciatic nerve using a 35-gauge Nanofil needle (World Precision Instruments, Sarasota, FL). The sciatic injection site was approximately 45 mm from the tip of the third toe.
Neuropathic pain model: For the induction of peripheral neuropathy, mice were first anesthetized by an intraperitoneal injection of ketamine, xylazine hydrochloride and acepromazine (VEDCO, Saint Joseph, MO). […]
Behavioral tests: Thermal and mechanical sensitivity was measured by Hargreaves test and von Frey filament threshold calculations respectively. […] The mouse hind paw was pressed with one of a series of von Frey filaments with logarithmically incrementing stiffness (Stoelting Co, Wood Dale, IL) presented perpendicular to the plantar surface of each hind paw for 1-2 seconds, the 50% threshold was determined using the Up- and Down method.

B1: Car10: carbonic anhydrase 10, rodent ortholog, overexpressed (V5-tagged) protein (protein)
chain: MEIVWEVLFLLQANFIVCISAQQNSPKIHEGWWAYKEVVQGSFVPVPSFWGLVNSAWNLCSVGKRQSPVNIETSHMIFDPFLTPLRINTGGRKVSGTMYNTGRHVSLRLDKEHLVNISGGPMTYSHRLEEIRLHFGSEDSQGSEHLLNGQAFSGEVQLIHYNHELYTNVTEAAKSPNGLVVVSIFIKVSDSSNPFLNRMLNRDTITRITYKNDAYLLQGLNIEELYPETSSFITYDGSMTIPPCYETASWIIMNKPVYITRMQMHSLRLLSQNQPSQIFLSMSDNFRPVQPLNNRCIRTNINFSLQGKDCPNNRAQKLQYRVNEWLLK
modifications: left off: small tags and cut ends
notes: carbonic anhydrase 10, rodent ortholog, overexpressed (V5-tagged) protein
forskolin-induced ITPR1 phosphorylation (pITPR1), western blot [1]: reduced forskolin-induced ITPR1 phosphorylation; also recorded: inhibited forskolin-induced pITPR1
pITPR1 by IHC in response to forskolin [1]: no increase in pITPR1
mechanical withdrawal threshold [2]: prevents mechanical hyperalgesia

B2: CA10: human carbonic anhydrase 10, overexpressed (V5-tagged) protein; SEQ ID NO: 9 (protein)
chain: B1 chain
modifications: V5 tag
forskolin-induced ITPR1 phosphorylation (pITPR1), western blot [1]: reduced forskolin-induced ITPR1 phosphorylation; also recorded: inhibited forskolin-induced pITPR1
pITPR1 by IHC in response to forskolin [1]: no increase in pITPR1
mechanical withdrawal threshold [2]: prevents mechanical hyperalgesia
